# Results: PMC10980815, “Cell surface patching via CXCR4-targeted nanothreads for cancer metastasis inhibition” (Nature Communications, 2024)
# Ends that are not written are not given here. HPMA copolymer = HPMA copolymer made by RAFT copolymerization of HPMA with N-(3-aminopropyl)methacrylamide (APMA), bearing maleimide groups for grafting
# Legend:
# [1] = ζ-potential (Zetasizer); type: physicochemical; settings: Malvern Zetasizer Nano ZS90; mean ± SD
# Procedure: (§1) The average molecular weight (Mw) and polydispersity (PDI) of the HPMA copolymer conjugates were determined by gel permeation chromatography (GPC) on an AKTA purifier equipment with a Superose 6 10/300 GL analytical column (GE Healthcare, USA) and a differential refraction detector (KNAUER, 2300, Germany). Hydrodynamic sizes and zeta potentials were determined using a Malvern Zetasizer Nano ZS90 equipment (Malvern Instruments Ltd, Malvern, UK). The contents of BS, CM1, and CM2 were determined using a bicinchoninic acid (BCA) protein assay. The PS concentration was determined by ultraviolet-visible (UV-Vis) spectroscopy at its characteristic absorbance peak (660 nm).
# [2] = Pharmacokinetics upon consecutive, simultaneous and post-assembly delivery; type: in vivo, female BALB/c mice; settings: for T1/2z: blood fluorescence, mean ± SD, n = 5; for AUC0-t / AUC0-∞ / MRT0-t / MRT0-∞: same
# Procedure: (§2) Three distinct delivery approaches were implemented in 4T1 tumor-bearing female BALB/c mice (6–8-week, tumor volume~200 mm^3, n = 5 per group). i) Consecutive delivery: Nanothread-1 and nanothread-2 were sequentially administered via intravenously injection with a 24 h time interval. ii) Simultaneous delivery: Nanothread-1 and Nanothread-2 were concurrently administered through two tail veins of one mouse. iii) Post-assembly delivery: Nanothread-1 and Nanothread-2 were pre-mixed before intravenous injection (5 nmol of Cy5 and 5 nmol of Cy3 per mouse). For the tumor accumulation study, whole-body living imaging was conducted at 24, 48, and 72 h post-administration of Cy5-labeled Nanothread. Additionally, excised tumors were imaged at the end point using the IVIS optical imaging system. For the pharmacokinetics study, blood samples were extracted at predetermined time points post-administration of fluorescence-labeled Nanothread, n = 5 per group. The fluorescent intensity in blood samples was measured with a microplate reader at the wavelengths of Cy5 (Ex: 630 nm, Em: 670 nm) and Cy3 (Ex: 530 nm, Em: 570 nm). Pharmacokinetic parameters, including half-life (T1/2z), area under curve (AUC), and mean residence time (MRT), were calculated using DAS 2.0 software.
# [3] = tested on: orthotopic 4T1 breast tumors; test: Tumor accumulation of Cy5-labeled nanothreads (IVIS imaging, excised tumors); type: in vivo, female BALB/c mice
# Procedure: For in vitro studies, 4T1 cells (2 × 10^5 cells) were seeded on coverslips (NEST Biotechnology) for attachment. Subsequently, the cells were treated with i) Cy5-labeled P-CM1 (P-CM1-Cy5) for 1 h, followed by incubation in cell culture medium for an additional 1 h, ii) Cy5-labeled P-BS-CM1 (P-BS-CM1-Cy5) for 1 h, followed by incubation in cell culture medium for an additional 1 h, or iii) P-BS-CM1-Cy5 for 1 h, followed by Cy3-labeled P-CM2 (P-CM2-Cy3) for an additional 1 h (5 nM Cy5 and 5 nM Cy3 equivalence), respectively. Following the treatments, cells were washed three times with PBS, stained with DAPI, and observed using a confocal microscope. For in vivo studies, 4T1 cells (1 × 10^6) were injected into the third mammary fat pad of female BALB/c mice (6–8 weeks, 20 ± 2 g) (n = 3) on day 0 to establish orthotopic breast tumor models. For investigation of CXCR4 binding, mice on day 14 (tumor volume, ~200 mm^3) were intravenously injected with P-CM1-Cy5 or P-BS-CM1-Cy5 (equivalent Cy5 dose, 5 nmol/mouse, n = 3). Whole-body living imaging at 24, 48, and 72 h post-administration as well as excised tumors at the end point, were captured using the IVIS optical imaging system (IVIS Lumina Series III, PerkinElmer, USA). For the analysis of CM1/CM2 biorecognition in the second step, 4T1 tumor-bearing mice (tumor volume, ~200 mm^3) were intravenously injected with Cy5 labeled P-CM2 (P-CM2-Cy5) alone on day 15, or pre-injected P-BS-CM1 on day 14 followed by intravenous injection of P-CM2-Cy5 on day 15 (equivalent Cy5 dose, 5 nmol/mouse, n = 3). Whole-body living imaging at 24 and 48 h post-P-CM2-Cy5 administration, as well as excised tumors at the end point, were captured using the IVIS optical imaging system. For further investigation, mice (tumor volume, ~200 mm^3) were intravenously injected with P-BS-CM1-Cy5 on day 14 and then P-CM2-Cy3 on day 15 (5 nmol of Cy5 and 5 nmol of Cy3 per mouse). One day later, tumor tissues were collected for frozen sectioning and further observation by confocal microscope.
# as §2
# [4] = Hydrodynamic size / size distribution by dynamic light scattering; type: physicochemical; settings: Malvern Zetasizer Nano ZS90, mean ± SD
# Procedure: as §1
# To investigate the coiled-coil assembly, varying CM1-to-CM2 ratios (3:1, 1:1, and 1:3) of P-BS-CM1 and P-CM2 were mixed in 10 mM PBS (pH 7.4) at 25 °C for 10 min. The total polymer concentration was kept constant at 10 mg/mL. Circular dichroism spectra, size distribution, and rheological properties of P-BS-CM1, P-CM2, and their mixture were measured. The surface morphology of P-BS-CM1 and the mixture (P-BS-CM1 + P-CM2) was observed using scanning electron microscopy. Additionally, for the FRET assay, CM1-to-CM2 equimolar of P-BS-CM1-Cy5 and P-CM2-Cy3 were mixed in 10 mM PBS (pH 7.4) at 25 °C for 10 min. Fluorescent spectra of P-BS-CM1-Cy5, P-CM2-Cy3, and the mixture (P-BS-CM1-Cy5+P-CM2-Cy3) were recorded at the Cy3 excitation wavelength of 550 nm.
molecule,measurement,setting,value
"P-CM2-Cy5: Cy5 labeled P-CM2 (C(HPMA copolymer)YGGEVSALEKEVSALEKKNSALEKEVSALEKEVSALEK; also: Cy5 label on conjugate, position not given here)",ζ-potential,[1],-8.94±0.45 mV
same,T1/2z,"[2]; Consecutive delivery (24 h interval) with unlabeled partner nanothread, i.v., 4T1 tumor-bearing mice, 5 nmol Cy5/mouse, DAS 2.0",20.232 ± 6.5 h
same,AUC0-t,[2]; Consecutive delivery,2807.529 ± 561.373 ng·h/mL
same,AUC0-∞,[2]; Consecutive delivery,2999.46 ± 668.451 ng·h/mL
same,MRT0-t,[2]; Consecutive delivery,15.196 ± 1.358 h
same,MRT0-∞,[2]; Consecutive delivery,21.117 ± 3.236 h
same,T1/2z,[2]; Post-assembly delivery (pre-mixed with unlabeled partner nanothread before i.v. injection),14.142 ± 3.54 h
same,AUC0-t,[2]; Post-assembly delivery,1356.51 ± 241.624 ng·h/mL
same,AUC0-∞,[2]; Post-assembly delivery,1374.981 ± 237.509 ng·h/mL
same,MRT0-t,[2]; Post-assembly delivery,8.789 ± 0.154 h
same,MRT0-∞,[2]; Post-assembly delivery,10.384 ± 0.829 h
same,T1/2z,"[2]; Simultaneous delivery (two tail veins, 0 h) with unlabeled partner nanothread, i.v.",17.583 ± 4.307 h
same,AUC0-t,[2]; Simultaneous delivery,1339.808 ± 201.879 ng·h/mL
same,AUC0-∞,[2]; Simultaneous delivery,1385.53 ± 238.655 ng·h/mL
same,MRT0-t,[2]; Simultaneous delivery,9.919 ± 0.611 h
same,MRT0-∞,[2]; Simultaneous delivery,12.694 ± 2.736 h
same,"tumor accumulation of Nanothread-2 (Fig. 5b, excised tumors)","[3]; P-CM2-Cy5 i.v. 5 nmol Cy5/mouse 24 h after saline or P-BS-CM1, IVIS at end point (48 h), animal 1 of 3",1.72
same,"tumor accumulation of Nanothread-2 (Fig. 5b, excised tumors)","[3]; P-CM2-Cy5 i.v. 5 nmol Cy5/mouse 24 h after saline or P-BS-CM1, IVIS at end point (48 h), animal 1 of 3, listed as G3",0.962
same,"tumor accumulation of Nanothread-2 (Fig. 5b, excised tumors)","[3]; same, animal 2 of 3",1.74
same,"tumor accumulation of Nanothread-2 (Fig. 5b, excised tumors)","[3]; same, animal 2 of 3, listed as G3",0.787
same,"tumor accumulation of Nanothread-2 (Fig. 5b, excised tumors)","[3]; same, animal 3 of 3",1.49
same,"tumor accumulation of Nanothread-2 (Fig. 5b, excised tumors)","[3]; same, animal 3 of 3, listed as G3",0.495
same,Size,[4],19.8±0.7 nm
"P-CM2: HPMA copolymer-CM2 conjugate, ~12 CM2 grafts per polymer (C(HPMA copolymer)YGGEVSALEKEVSALEKKNSALEKEVSALEKEVSALEK; also: CM2 N-terminal cysteine joined to a maleimide of the HPMA copolymer backbone, ~12 per polymer)",ζ-potential,[1],-8.73±0.34 mV
same,Size,[4],19.2±0.7 nm
P-PS-CM2: HPMA backbone grafted with CM2 and chlorin e6 photosensitizer (C(HPMA copolymer)YGGEVSALEKEVSALEKKNSALEKEVSALEKEVSALEK; also: chlorin e6 photosensitizer on polymer),ζ-potential,[1],-11.21±1.24 mV
same,Size,[4],25.8±1.2 nm
"P-BS-CM1: linear HPMA polymer backbone grafted with CXCR4 binding sequence (BS) and coiled motif CM1 (conjugate, not fully specified (some residues); also: BS cysteines (Cys11, Cys12) joined to maleimides of the HPMA copolymer backbone, ~6 per polymer, CM1 N-terminal cysteine joined to a maleimide of the HPMA copolymer backbone, ~4 per polymer) chain 1: LGASWHRPDKCCLGYQKRPLPA chain 2: C(HPMA copolymer)YGGKVSALKEKVSALKEEVSANKEKVSALKEKVSALKE",ζ-potential,[1],-5.67±0.79 mV
same,Size,[4],17.5±2.1 nm
